The numbers were not newly measured in patent publication US20200069786A1, “COMPOSITION AND PROCESS FOR PREPARING VACCINE” (TREOS BIO ZRT., priority 2018, published 2020), which cites them from elsewhere.

Read-outs that look alike come from different tables or passages of the source.

The series deals with TSA.
Where [1] appears, read: TSA expression rate in BLADDER cancer.
The mark [2] stands for this setting: TSA expression rate in Esophageal.
[3] abbreviates: TSA expression rate in HEAD and NECK.
Setting [4] is: TSA expression rate in MELANOMA
Setting [5] is: TSA expression rate in PEDIATRIC
Where [6] appears, read: TSA expression rate in PROSTATE cancer.
Where [7] appears, read: TSA expression rate in GASTRIC cancer.
The mark [8] stands for this setting: TSA expression rate in LEUKEMIAS
Where [9] appears, read: TSA expression rate in LUNG cancer.

B1: MAGE-A6 (protein, UniProt P43360 1-314, looked up)
Melanoma-associated antigen 6: MPLEQRSQHCKPEEGLEARGEALGLVGAQAPATEEQEAASSSSTLVEVTLGEVPAAESPDPPQSPQGASSLPTTMNYPLWSQSYEDSSNQEEEGPSTFPDLESEFQAALSRKVAKLVHFLLLKYRAREPVTKAEMLGSVVGNWQYFFPVIFSKASDSLQLVFGIELMEVDPIGHVYIFATCLGLSYDGLLGDNQIMPKTGFLIIILAIIAKEGDCAPEEKIWEELSVLEVFEGREDSIFGDPKKLLTQYFVQENYLEYRQVPGSDPACYEFLWGPRALIETSYVKVLHHMVKISGGPRISYPLLHEWALREGEE
Consider B1, for which the “TSA Expression Rate (ER)” value runs as follows: (BREAST) 15%; (HCC) 36%; (LUNG) 51%. Further, the “Expression Rate (ER) %” value is recorded as 25% under setting [1]; 22% (TSA expression rate in CRC); 68% under setting [2]; 58% under setting [3]; 0% (TSA expression rate in Kidney); 65% under setting [4]. Also, the “Expression Rate (ER) %” value under setting [5] was 80% and the “Expression Rate (ER) %” value under setting [6] is listed as 23%.

B2: TSPY1 (protein, UniProt Q01534 1-308, looked up)
Testis-specific Y-encoded …: MRPEGSLTYRVPERLRQGFCGVGRAAQALVCASAKEGTAFRMEAVQEGAAGVESEQAALGEEAVLLLDDIMAEVEVVAEEEGLVERREEAQRAQQAVPGPGPMTPESAPEELLAVQVELEPVNAQARKAFSRQREKMERRRKPHLDRRGAVIQSVPGFWANVIANHPQMSALITDEDEDMLSYMVSLEVGEEKHPVHLCKIMLFFRSNPYFQNKVITKEYLVNITEYRASHSTPIEWYPDYEVEAYRRRHHNSSLNFFNWFSDHNFAGSNKIAEILCKDLWRNPLQYYKRMKPPEEGTETSGDSQLLS
As for B2, where the note is “HCC”, the “TSA Expression Rate (ER)” value is 35%. Moreover, the “Expression Rate (ER) %” value is listed as 0% under setting [1]; 0% under setting [7]; 5% (TSA expression rate in Kidney); 12% under setting [8]; 0% under setting [9]; 0% (TSA expression rate in LYMPHOMAS).

B3: ACRBP (protein, UniProt Q8NEB7 26-543, looked up)
Acrosin-binding protein: QDSTQASTPGSPLSPTEYERFFALLTPTWKAETTCRLRATHGCRNPTLVQLDQYENHGLVPDGAVCSNLPYASWFESFCQFTHYRCSNHVYYAKRVLCSQPVSILSPNTLKEIEASAEVSPTTMTSPISPHFTVTERQTFQPWPERLSNNVEELLQSSLSLGGQEQAPEHKQEQGVEHRQEPTQEHKQEEGQKQEEQEEEQEEEGKQEEGQGTKEGREAVSQLQTDSEPKFHSESLSSNPSSFAPRVREVESTPMIMENIQELIRSAQEIDEMNEIYDENSYWRNQNPGSLLQLPHTEALLVLCYSIVENTCIITPTAKAWKYMEEEILGFGKSVCDSLGRRHMSTCALCDFCSLKLEQCHSEASLQRQQCDTSHKTPFVSPLLASQSLSIGNQVGSPESGRFYGLDLYGGLHMDFWCARLATKGCEDVRVSGWLQTEFLSFQDGDFPTKICDTDYIQYPNYCSFKSQQCLMRNRNRKVSRMRCLQNETYSALSPGKSEDVVLRWSQEFSTLTLGQFG
For B3, the “TSA Expression Rate (ER)” value by setting is: (BREAST) 40%; (HCC) 70%; (LUNG) 20%; (OVARIAN) 65%. The “Expression Rate (ER) %” value is, setting by setting: under setting [1], 28%; (TSA expression rate in CRC) 63%; under setting [7], 0%; (TSA expression rate in Kidney) 0%; under setting [6], 4%.

B4: TEKT5 (protein, UniProt Q96M29 1-485, looked up)
Tektin-5: MEFLGTTQTASYCGPKKCCGLTSLPAVQAPVIQECYQPYYLPGYRYLNSWRPSLFYKIANVQTCPDESTSTLRPPTILPTLRSALFSRYSPHDWDQSNQLQVRGAEASRLWASRLTDDSMRLLQDKDQLTHQMQEGTCRNLGQRLSDIGFWKSELSYELDRLLTENQNLETVKRRLECAANEVNCPLQVALECLYHREKRIGIDLVHDNVEKNLIREVDLLKCCQEQMRKLAQRIDIQMRDNRDAQHVLERDLEDKSSAQCIDEKCFNLRNTSDCISFFHGMEKIDGTISVPETWAKFSNDNIKHSQNMRANSIQLREEAEHLFETLSDQMWRQFTDTNLAFNARISEVTDVKNKLQTQLAKTLQEIFQAENTIMLLERSIMAKEGPLKVAQTRLECRTRRPNMELCRDIPQLKLVNEVFTIDDTLQTLKLRLRETQDTLQLLVMTKCRLEHELAIKANTLCIDKEKCMGMRKTFPCTPRLVGHT
As to B4, where the note is “HCC”, the “TSA Expression Rate (ER)” value is given as 60%. The “Expression Rate (ER) %” value is, setting by setting: (TSA expression rate in CRC) 50%; under setting [7], 40%; under setting [3], 0%; under setting [9], 10%; under setting [6], 11%.

B5: FATE1 (protein, UniProt Q969F0 1-183, looked up)
Fetal and adult …: MAGGPPNTKAEMEMSLAEELNHGRQGENQEHLVIAEMMELGSRSRGASQKKQKLEQKAAGSASAKRVWNMTATRPKKMGSQLPKPRMLRESGHGDAHLQEYAGNFQGIRFHYDRNPGTDAVAQTSLEEFNVLEMEVMRRQLYAVNRRLRALEEQGATWRHRETLIIAVLVSASIANLWLWMNQ
Turning to B5, the “TSA Expression Rate (ER)” value (HCC) is listed as 49%. The “Expression Rate (ER) %” value is, setting by setting: (TSA expression rate in CRC) 21%; under setting [7], 2%; under setting [9], 0%.

B6: CAGE1 (protein, UniProt Q8TC20 1-777, looked up)
Cancer-associated gene 1 …: MNKDYQKFWSSPSDPVHFEVDTSHEKVESMSESDTMNVSNLSQGVMLSHSPICMETTGTTCDLPQNEIKNFERENEYESTLCEDAYGTLDNLLNDNNIENYSTNALIQPVDTISISSLRQFETVCKFHWVEAFDDEMTEKPEFQSQVYNYAKDNNIKQDSFKEENPMETSVSANTDQLGNEYFRQPPPRSPPLIHCSGEMLKFTEKSLAKSIAKESALNPSQPPSFLCKTAVPSKEIQNYGEIPEMSVSYEKEVTAEGVERPEIVSTWSSAGISWRSEACRENCEMPDWEQSAESLQPVQEDMALNEVLQKLKHTNRKQEVRIQELQCSNLYLEKRVKELQMKITKQQVFIDVINKLKENVEELIEDKYKIILEKNDTKKTLQNLEEVLANTQKHLQESRNDKEMLQLQFKKIKANYVCLQERYMTEMQQKNKSVSQYLEMDKTLSKKEEEVERLQQLKKELEKATASALDLLKREKEAQEQEFLSLQEEFQKLEKENLEERQKLKSRLEKLLTQVRNLQFMSENERTKNIKLQQQINEVKNENAKLKQQVARSEEQNYVPKFETAQLKDQLEEVLKSDITKDTKTTHSNLLPDCSPCEERLNPADIKRASQLASKMHSLLALMVGLLTCQDIINSDAEHFKESEKVSDIMLQKLKSLHLKKKTLDKEVIDCDSDEAKSIRDVPTLLGAKLDKYHSLNEELDFLVTSYEEIIECADQRLAISHSQIAHLEERNKHLEDLIRKPREKARKPRSKSLENHPKSMTMMPALFKENRNDLD
On to B6, for which the “TSA Expression Rate (ER)” value (HCC) is listed as 39%. Also, the “Expression Rate (ER) %” value reads like this: (TSA expression rate in CRC) 74%; (TSA expression rate in Cervical cancer) 98%; under setting [7], 77%; under setting [9], 14%.

B7: MAGE-A12 (protein, UniProt P43365 1-314, looked up)
Melanoma-associated antigen 12: MPLEQRSQHCKPEEGLEAQGEALGLVGAQAPATEEQETASSSSTLVEVTLREVPAAESPSPPHSPQGASTLPTTINYTLWSQSDEGSSNEEQEGPSTFPDLETSFQVALSRKMAELVHFLLLKYRAREPFTKAEMLGSVIRNFQDFFPVIFSKASEYLQLVFGIEVVEVVRIGHLYILVTCLGLSYDGLLGDNQIVPKTGLLIIVLAIIAKEGDCAPEEKIWEELSVLEASDGREDSVFAHPRKLLTQDLVQENYLEYRQVPGSDPACYEFLWGPRALVETSYVKVLHHLLKISGGPHISYPPLHEWAFREGEE
As for B7, the “TSA Expression Rate (ER)” value is on record as 12% (BREAST), 36% (HCC) and 31% (LUNG). The “Expression Rate (ER) %” value under setting [1] is given as 29%; the “Expression Rate (ER) %” value (TSA expression rate in CRC) is listed as 6%; the “Expression Rate (ER) %” value under setting [2] was 26%; the “Expression Rate (ER) %” value under setting [3] is 34%; the “Expression Rate (ER) %” value (TSA expression rate in Kidney) is recorded as 4%; the “Expression Rate (ER) %” value under setting [8] is 21%. The “Expression Rate (ER) %” value by setting is: under setting [4], 49%; under setting [5], 41%; under setting [6], 5%.

B8: IGFS11 (protein, UniProt Q5DX21 23-431, looked up)
Immunoglobulin superfamily …: LEVSESPGSIQVARGQPAVLPCTFTTSAALINLNVIWMVTPLSNANQPEQVILYQGGQMFDGAPRFHGRVGFTGTMPATNVSIFINNTQLSDTGTYQCLVNNLPDIGGRNIGVTGLTVLVPPSAPHCQIQGSQDIGSDVILLCSSEEGIPRPTYLWEKLDNTLKLPPTATQDQVQGTVTIRNISALSSGLYQCVASNAIGTSTCLLDLQVISPQPRNIGLIAGAIGTGAVIIIFCIALILGAFFYWRSKNKEEEEEEIPNEIREDDLPPKCSSAKAFHTEISSSDNNTLTSSNAYNSRYWSNNPKVHRNTESVSHFSDLGQSFSFHSGNANIPSIYANGTHLVPGQHKTLVVTANRGSSPQVMSRSNGSVSRKPRPPHTHSYTISHATLERIGAVPVMVPAQSRAGSLV
Turning to B8, where the note is “HCC”, the “TSA Expression Rate (ER)” value is on record as 60%. Moreover, under setting [7], the “Expression Rate (ER) %” value is 88%.

B9: MAGE-A8 (protein, UniProt P43361 1-318, looked up)
Melanoma-associated antigen 8: MLLGQKSQRYKAEEGLQAQGEAPGLMDVQIPTAEEQKAASSSSTLIMGTLEEVTDSGSPSPPQSPEGASSSLTVTDSTLWSQSDEGSSSNEEEGPSTSPDPAHLESLFREALDEKVAELVRFLLRKYQIKEPVTKAEMLESVIKNYKNHFPDIFSKASECMQVIFGIDVKEVDPAGHSYILVTCLGLSYDGLLGDDQSTPKTGLLIIVLGMILMEGSRAPEEAIWEALSVMGLYDGREHSVYWKLRKLLTQEWVQENYLEYRQAPGSDPVRYEFLWGPRALAETSYVKVLEHVVRVNARVRISYPSLHEEALGEEKGV
As to B9, the “TSA Expression Rate (ER)” value (HCC) was 45%. Further, the “Expression Rate (ER) %” value runs as follows: under setting [1], 57%; (TSA expression rate in CRC) 44%; under setting [4], 10%.
